Measured values as given in US20200283523A1 (WUXI BIOLOGICS IRELAND, published 2020).
Positions count from the first letter of the chain named. Names and notes keep the numbering of the source.

Experiments:
human CD19 [1] = biological target: T1, human CD19 (human, UniProt P15391 20-556); experiment: flow cytometry affinity on Ramos cells, bound/free versus bound plot; Ramos cells, CD19
T1 construct: whole, on cells; also called CD19 on Ramos cells; CD19 on Raji cells
T1 sequence (looked up): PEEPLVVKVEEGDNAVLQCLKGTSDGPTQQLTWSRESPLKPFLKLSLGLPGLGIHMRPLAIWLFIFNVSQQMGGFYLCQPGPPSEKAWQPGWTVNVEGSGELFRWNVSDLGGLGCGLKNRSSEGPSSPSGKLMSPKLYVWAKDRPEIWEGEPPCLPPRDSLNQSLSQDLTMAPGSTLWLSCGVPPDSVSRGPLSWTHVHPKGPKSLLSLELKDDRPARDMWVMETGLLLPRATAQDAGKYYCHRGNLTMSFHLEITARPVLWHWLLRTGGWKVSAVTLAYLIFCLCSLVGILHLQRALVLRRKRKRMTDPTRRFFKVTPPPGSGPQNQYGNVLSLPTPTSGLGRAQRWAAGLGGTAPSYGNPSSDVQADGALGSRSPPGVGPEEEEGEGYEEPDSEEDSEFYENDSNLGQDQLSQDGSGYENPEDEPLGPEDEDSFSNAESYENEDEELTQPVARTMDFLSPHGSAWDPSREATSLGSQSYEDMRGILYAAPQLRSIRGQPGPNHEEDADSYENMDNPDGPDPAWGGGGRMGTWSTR
Experimental: Binding affinity to CD3 and CD19 was determined by flow cytometry using Jurkat and Ramos cells, respectively. The cells were transferred in to 96-well U-bottom plates (BD) at a density of 5×10⁴ cells/well. Antibodies to be tested were 1:2-fold serially diluted in 1% 1×PBS/1% BSA and incubated with cells at 4° C. for 1 hr. Then, the plates were centrifuged at 1500 rpm for 4 mins and the supernatant discarded. The secondary antibody, Alexa647 conjugated goat anti-human IgG Fc (Jackson, Cat #109-605-098) or FITC conjugated goat anti-His (Bethyl, Cat # A190-113F) was added to re-suspended cells and incubated at 4° C. in the dark for 30 min. The cells were washed once and re-suspended in 100 μL 1×PBS/1% BSA. Fluorescence intensity was measured by flow cytometry (BD Canto II) and analyzed by FlowJo. Fluorescence intensity was converted to bound molecules/cell based on the quantitative beads (Quantum™ MESF Kits, Bangs Laboratories). KD was calculated by Graphpad Prism5.
The binding affinity of W3438-T3U4.E17-1.uIgG4.SP to human CD19 and CD3 was tested on Ramos and Jurkat cells by flow cytometry. The bound IgG/free IgG versus bound IgG was plotted in FIGS. 14A-14B.

human CD19 [2] = biological target: T1, human CD19; experiment: cell-based or functional assay
FcRn = FcRn (UniProt P55899 24-297; P61769 21-119, limits assumed); experiment: SPR (Biacore) at pH 6.0, antibody immobilized, FcRn injected, steady state fit
Experimental: Antibody binding affinity to FcRn was detected using Biacore T200 (or Biacore 8K). Each antibody was immobilized on CMS sensor chip (GE). FcRn at different concentrations in running buffer (50 mM Na2HPO4/NaH2PO4, 150 mM NaCl, 0.05% Tween20, pH 6.0) were injected over the sensor chip at a flow rate of 30 uL/min for an association phase of 60 s, followed by 60 s dissociation. The chip was then regenerated by 1×PBS (pH 7.4) after each binding cycle.
The binding of W3438-T3U4.E17-1.uIgG4.SP to FcRn was tested by SPR at pH 6.0.

human CD3 = biological target: T2, human CD3 (human, UniProt P07766 23-207); experiment: flow cytometry on Jurkat cells
T2 construct: whole, on cells; On cells CD3 stands as the full CD3/TCR complex; also called CD3 on Jurkat cells

FcγRIIa (R167) = biological target: T3, FcγRIIa (R167) (UniProt P12318 36-218, limits assumed); experiment: SPR (Biacore), receptor captured on anti-his chip, antibody injected, steady state fit
T3 sequence (looked up): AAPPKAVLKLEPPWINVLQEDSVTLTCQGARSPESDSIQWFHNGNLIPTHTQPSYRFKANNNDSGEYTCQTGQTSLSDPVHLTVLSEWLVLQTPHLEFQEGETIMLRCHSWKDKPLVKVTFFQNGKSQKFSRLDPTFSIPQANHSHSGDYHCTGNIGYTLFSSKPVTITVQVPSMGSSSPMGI
Experimental: (§1) Antibody binding affinity to FcγRs was detected using Biacore T200 (or Biacore 8K). Each receptor was captured on an anti-his antibody immobilized CMS sensor chip (GE). Antibodies at different concentrations were injected over the sensor chip at a flow rate of 30 uL/min for an association phase of 60 s, followed by 60 s dissociation. The chip was then regenerated by 10 mM glycine (pH 1.5) after each binding cycle.
(§2) The sensorgrams of blank surface and buffer channel were subtracted from the test sensorgrams. The experimental data was fitted by 1:1 model using Langmiur analysis (for FcγRI) or steady state model (for other receptors). A molecular weight of 150 KDa was used to calculate the molar concentration of antibodies.

FcγRIIIb = FcγRIIIb (UniProt O75015 17-200); experiment: as above
Experimental: as §1, §2

FcγRIIIa (F176) = FcγRIIIa (F176) (UniProt P08637 17-208); experiment: as above
Experimental: as §1, §2

FcγRIIa (H167) = biological target: T4, FcγRIIa (H167) (UniProt P12318 36-218, limits assumed); experiment: as above
T4 sequence (looked up): T3 sequence (looked up) with R132H
Experimental: as §1, §2

FcγRIIIa (V176) = FcγRIIIa (V176) (UniProt P08637 17-208); experiment: as above
Experimental: as §1, §2

FcγRIIb = biological target: T5, FcγRIIb (UniProt P31994 46-217, limits assumed); experiment: as above
T5 sequence (looked up): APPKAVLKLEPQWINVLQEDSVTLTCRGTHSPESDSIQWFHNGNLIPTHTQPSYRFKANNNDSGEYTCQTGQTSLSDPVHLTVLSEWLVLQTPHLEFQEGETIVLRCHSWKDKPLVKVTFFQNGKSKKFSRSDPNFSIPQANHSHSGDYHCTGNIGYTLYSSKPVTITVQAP
Experimental: as §1, §2

T2 sequence (P07766 23-207): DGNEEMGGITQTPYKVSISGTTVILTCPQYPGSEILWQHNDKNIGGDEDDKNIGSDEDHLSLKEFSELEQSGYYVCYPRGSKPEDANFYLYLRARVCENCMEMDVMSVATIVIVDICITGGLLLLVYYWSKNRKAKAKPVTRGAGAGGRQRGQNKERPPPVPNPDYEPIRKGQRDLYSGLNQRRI
Chain of FcγRIIIa (F176) (P08637 17-208 limits assumed): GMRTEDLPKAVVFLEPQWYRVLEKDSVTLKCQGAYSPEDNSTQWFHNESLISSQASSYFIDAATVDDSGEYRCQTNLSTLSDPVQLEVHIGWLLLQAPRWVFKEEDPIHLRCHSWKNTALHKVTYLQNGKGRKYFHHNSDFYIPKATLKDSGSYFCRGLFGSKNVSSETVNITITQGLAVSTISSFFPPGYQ
Chain of FcγRIIIb (O75015 17-200 limits assumed): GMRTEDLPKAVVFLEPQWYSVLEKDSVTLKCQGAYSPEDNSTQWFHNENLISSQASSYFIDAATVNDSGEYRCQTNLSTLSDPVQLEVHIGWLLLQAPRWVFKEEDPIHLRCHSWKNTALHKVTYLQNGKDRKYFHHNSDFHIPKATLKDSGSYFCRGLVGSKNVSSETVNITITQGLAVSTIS
Chain of FcRn (P55899 24-297 limits assumed, chain 1 of 2): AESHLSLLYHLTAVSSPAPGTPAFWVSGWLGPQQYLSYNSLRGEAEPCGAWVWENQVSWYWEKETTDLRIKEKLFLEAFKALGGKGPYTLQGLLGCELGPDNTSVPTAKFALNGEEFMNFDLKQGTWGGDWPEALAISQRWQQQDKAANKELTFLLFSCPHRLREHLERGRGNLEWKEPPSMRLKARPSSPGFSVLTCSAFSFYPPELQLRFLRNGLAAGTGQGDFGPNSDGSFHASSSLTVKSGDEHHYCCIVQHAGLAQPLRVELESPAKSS
Chain of FcRn (P61769 21-119 limits assumed, chain 2 of 2): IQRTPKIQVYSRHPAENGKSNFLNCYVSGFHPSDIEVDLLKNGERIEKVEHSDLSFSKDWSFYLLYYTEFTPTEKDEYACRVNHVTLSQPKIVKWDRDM
Chain of FcγRIIIa (V176) (P08637 17-208 F176V limits assumed): as the sequence (P08637 17-208 limits assumed) above, with F160V counted along it

B1: W3438-T3U4.E17-1.uIgG4.SP (bispecific antibody)
light 1: DIVMTQSPDSLAVSLGERATINCKSSQSLLNSRTRKNYLAWYQQKPGQPPKLLIYWASTRQSGVPDRFSGSGSGTDFTLTISSLQAEDVAVYYCTQSHTLRTFGGGTKVEIKPDIQNPDPAVYQLRDSKSSDKSVCLFTDFDSQTQVSQSKDSDVYITDKCVLDMRSMDFKSNSAVAWSQKSDFACANAFQNSIIPEDTFFPSPESS
heavy 1: QVQLVQSGAEVKKPGSSVKVSCKASGFAFTDYYIHWVRQAPGQGLEWMGWISPGNVNTKYNENFKGRVTITADKSTSTAYMELSSLRSEDTAVYYCARDGYSLYYFDYWGQGTLVTVLEDLKNVFPPEVAVFEPSEAEISHTQKATLVCLATGFYPDHVELSWWVNGKEVHSGVCTDPQPLKEQPALQDSRYALSSRLRVSATFWQNPRNHFRCQVQFYGLSENDEWTQDRAKPVTQIVSAEAWGRYGPPCPPCPAPEFLGGPSVFLFPPKPKDTLMISRTPEVTCVVVDVSQEDPEVQFNWYVDGVEVHNAKTKPREEQFNSTYRVVSVLTVLHQDWLNGKEYKCKVSNKGLPSSIEKTISKAKGQPREPQVYTLPPCQEEMTKNQVSLWCLVKGFYPSDIAVEWESNGQPENNYKTTPPVLDSDGSFFLYSRLTVDKSRWQEGNVFSCSVMHEALHNHYTQKSLSLSLGK
light 2: DIQLTQSPSFLSASVGDRVTITCSASSTVNYMHWYQQKPGKAPKLLIYSTSNLASGVPSRFSGSGSGTEFTLTISSLQPEDFATYYCHQWSSYPYTFGQGTKLEIKRTVAAPSVFIFPPSDEQLKSGTASVVCLLNNFYPREAKVQWKVDNALQSGNSQESVTEQDSKDSTYSLSSTLTLSKADYEKHKVYACEVTHQGLSSPVTKSFNRGEC
heavy 2: QMQLVQSGPEVKKPGTSVKVSCKASGYAFTSYNMYWVRQARGQRLEWIGYIDPYNGDTTYNQKFKGRVTITRDMSTSTAYMELSSLRSEDTAVYYCLTTAYAMDYWGQGTLVTVSSASTKGPSVFPLAPCSRSTSESTAALGCLVKDYFPEPVTVSWNSGALTSGVHTFPAVLQSSGLYSLSSVVTVPSSSLGTKTYTCNVDHKPSNTKVDKRVESKYGPPCPPCPAPEFLGGPSVFLFPPKPKDTLMISRTPEVTCVVVDVSQEDPEVQFNWYVDGVEVHNAKTKPREEQFNSTYRVVSVLTVLHQDWLNGKEYKCKVSNKGLPSSIEKTISKAKGQPREPQVCTLPPSQEEMTKNQVSLSCAVKGFYPSDIAVEWESNGQPENNYKTTPPVLDSDGSFFLVSRLTVDKSRWQEGNVFSCSVMHEALHNHYTQKSLSLSLGK
notes: Bispecific, bivalent: one anti-CD3 arm with TCR constant domains and one native anti-CD19 Fab arm, IgG4 S228P Fc with knobs-into-holes; also called WBP3438; CD3×CD19 bispecific antibody; copies: 1 + 1 + 1 + 1
Kd (human CD19 [1]): 0.023 µM | cytotoxic activity on Raji cells with CD8+ T cells, EC50 (human CD19 [2]): 0.015 µM | Kd (FcRn): 2.58 µM | EC50 (human CD3): 0.047 µM | Kd (FcγRIIa (R167)): 15.8 µM | Kd (FcγRIIIb): > 41 µM | Kd (FcγRIIIa (F176)): 29.3 µM | Kd (FcγRIIa (H167)): 20.5 µM | Kd (FcγRIIIa (V176)): 14 µM | Kd (FcγRIIb): 24.1 µM
